One data set relates to invertase. Put plainly: Enzyme assay of invertase in the presence of CON-1. The format is biochemical. The following applies: same concentration as for alpha-glucosidase. The protocol:
The enzyme reaction was incubated with 5 mM sucrose as substrate in 50 mM acetate buffer pH 5.0 at 37° C. for 60 minutes. The production of glucose was determined as described in "Enzyme Assay of Alpha-Glucosidase Activity".

In another data set the test system is alpha-amylase. Briefly: Enzyme assay of alpha-amylase activity in the presence of CON-1. As to conditions: same concentration as for alpha-glucosidase. The format is biochemical. As to the method: (§1) The enzyme reactions of alpha- and beta-amylases contained 2 mg of phytoglycogen as substrate in 0.05 M sodium acetate buffer, pH 5.4; and were incubated at 37° C. for 60 minutes. The liberation of reducing sugar from phytoglycogen was measured by the reduction of 3,5-nitrosalicyclic acid as described by Bernfeld, Methods Enzymol. 1:149-158 (1955).

The subject of a further data set is beta-amylase. Put plainly: Enzyme assay of beta-amylase activity in the presence of CON-1. The format is biochemical. The following applies: same concentration as for alpha-glucosidase. The protocol:
as §1

The format of data set [1] is physicochemical. An excerpt: The crude preparation (either cell lysate, whole saliva, or parotid exudate) is collected at subzero temperatures, preferably into a dry-ice chilled container. The preparation is then heated to a temperature between 75 and 100 degrees Centigrade, for a period sufficient to cause denaturation of proteases. At lower temperatures, the time of exposure to heat may be increased up to one hour. Best results are obtained by heating an aliquot of the crude preparation in boiling water from 2 to about 10 minutes. Precipitated protein is then removed by centrifugation followed by an alcohol precipitation. The alcohol may be isopropyl, methyl, or ethyl, ethyl being preferred because of its nontoxic or USP properties. Alcohol precipitation is generally carried out overnight at 4 to 15 degrees.
In conventional purification strategies, the protein was either degraded too rapidly to remove contaminating proteases, or the protein is inherently unstable in the presence of alterative materials. Among those techniques attempted in purifying CON-1 and CON-2 are the following: Sephadex gel filtration, DEAE cation and anion exchange chromatography, preparative gradient SDS-gel electrophoresis, solvent precipitation in an initial step (methanol, propanol, isopropanol, butanol acetone, and phenol), concanavalin A affinity column chromatography, and blue dye gel affinity column chromatography. […]

In the next data set the test system is HIV-1. The following applies: CEMx174 cells. The protocol:
To test whether the alpha-glucosidase inhibitor activity of CON-1 could also intervene in HIV adsorption to target cells, thereby reducing infectivity and production of viral proteins, the following experiment was carried out: CEMx174 cells, as described by Hoxie, et al., J. Virol., 62: 2557 (1988), were infected at a concentration of 500,000 cells per ml for 2 hours at 37 degrees Centigrade with cell-free HIV-1, isolated as described in Alizon, et al., Nature, 312: 757 (1984), by adding virus at a concentration of 300 ng of HIV p24 protein per ml. Components of complete medium: RPMI 1640 with 10% fetal bovin serum, 2 mM L-glutamine, penicillin at 100 units/ml, and streptomycin at 100 ug/ml) with phytohemagglutin (PHA, 1 ug/ml; Sigma). After the 2 hour incubation, the virus inoculum was washed off and the cells were resuspended in complete culture medium containing various amounts of CON-1 protein. The cells were incubated in 96-well microtiter plates (5×10^4 cells in 200 ul per well), and cell-free supernatants were collected 72 hours after infection.
The amount of HIV p24 in the cell-free supernatant was determined with a commercially available ELISA kit (Coulter) according to the manufacture's instructions. The HCEM cell line described in Pauza, et al. J. Virol., 63:3700 (1989) was used to assess the effect of CON-1 on HIV production from chronically infected cells. HCEM cells were pretreated with CON-1 at 10 ug/ml for 4 hours, washed twice with phosphate-buffered saline and then incubated at 10^6 cells per ml in complete medium in the presence of CON-1 at 10 ug/ml, respectively. After 48 hours, cell-free supernatants were collected to determine HIV p24 levels by ELISA.

The next data set deals with glucoamylase. The following applies: same concentration as for alpha-glucosidase.
A further data set has as its system debranching enzyme. Put plainly: Enzyme assay of debranching enzyme in the presence of CON-1. The data set is classed as biochemical. As to conditions: same concentration as for alpha-glucosidase. As to the method: Debranching enzyme activity was determined according to the method of Lee, et al. Arch. Biochem. Biophys., 143:315-374 (1971). The reaction mixture contains 2 mg of pullulan, 100 mM sodium citrate buffer (pH 7.0), and incubated at 37° C. for 60 minutes. The reducing sugar produced from phytoglycogen was determined according to the method of Bernfeld, Methods Enzymol. 1:149-158 (1955).

The test system of another data set is CEM×179 cells. The format is cell-based. The protocol:
T cell proliferation assay: CEM×179 cells (2×10^5/well in 200 ul of complete medium) were cultured during 6 days at 37° C. in flat-bottomed microtiter wells, and T cell proliferation was evaluated following a 6 hr pulse of (3H)-thymidine (0.5 uCi/well) (Amersham, Bucks, England). Cultures were harvested (Skatron Instruments, Lier, Norway) and the radioactivity was measured using a beta-counter (Packard Gamma 5500).

A further data set has as its target yeast alpha-glucosidase (Saccharomyces cerevisiae, UniProt P53341). The data set is classed as biochemical. As to conditions: for inhibitory effect on alpha-glucosidase activity (in words): 0.02 units of yeast alpha-glucosidase; for Specific Inhibitory Activity: decrease of 1 umole of glucose production from maltose per microgram of salivary protein per hour, stages of CON-1 purification; for change of inhibitory activity after removal of acetylglucosamine (in words): incubation with N-acetylglucosaminidase. The protocol:
The enzyme of alpha-glucosidase activity is according to the procedure as described by Sigma Chemical Company, St. Louis, Mo. Routinely, the enzyme reaction mixture contains 10 mM maltose and 50 ul of purified alpha-glucosidase or 0.02 units of yeast alpha-glucosidase in a final volume of 60 ul of 25 mM sodium acetate buffer, pH 5.6. The reaction mixture is incubated at 37° C. for 60 minutes, and the production of glucose is determined by the glucose oxidase reagent (Worthington Statzyme Glucose 500) in accordance with recommendation of Worthington Biochemical Corporation.

Where [2] appears, read: supernatant 72 hours after infection (FIG. 9).

This is an account of results in US5981720A, “Human salivary proteins and fragments thereof having alpha-glucosidase inhibitory activity” (priority 1997, dated 1999).

“Also recorded” adds a separate entry of the source. Read-outs that look alike come from different tables or passages of the source.

Chain of yeast alpha-glucosidase (P53341 whole entry): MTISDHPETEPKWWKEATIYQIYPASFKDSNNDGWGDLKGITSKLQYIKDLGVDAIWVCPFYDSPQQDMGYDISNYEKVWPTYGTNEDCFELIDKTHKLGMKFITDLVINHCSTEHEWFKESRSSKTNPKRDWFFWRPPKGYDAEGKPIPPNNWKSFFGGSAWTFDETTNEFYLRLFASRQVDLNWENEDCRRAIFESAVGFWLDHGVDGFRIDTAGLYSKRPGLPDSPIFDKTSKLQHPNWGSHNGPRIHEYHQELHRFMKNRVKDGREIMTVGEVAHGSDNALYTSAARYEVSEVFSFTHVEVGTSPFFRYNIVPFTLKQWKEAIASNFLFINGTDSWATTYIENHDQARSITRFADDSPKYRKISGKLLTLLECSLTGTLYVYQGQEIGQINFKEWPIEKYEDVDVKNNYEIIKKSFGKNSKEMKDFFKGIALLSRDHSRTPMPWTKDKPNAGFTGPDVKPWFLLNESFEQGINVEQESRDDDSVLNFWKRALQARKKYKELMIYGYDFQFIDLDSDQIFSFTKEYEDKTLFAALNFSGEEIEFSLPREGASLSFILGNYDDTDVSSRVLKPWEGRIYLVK

B1: CON-1: basic salivary proline-rich glycoprotein which binds concanavalin A, 124 amino acids, large form (protein)
chain: SPPGKPQGPPPQGGNQPQGPPPPPGKPQGPPPQGGNKPQGPPPPGKPQGPPPQGDNKSQSARSPPGKPQGPPPQGGNQPQGPPPPPGKPQGPPPQGGNKSQGPPPPGKPQGPPPQGGSKSRSSR
modifications: glycoprotein; glycosylation occurs at one N-linked site (acetylglucosamine on asparagine of glycine-glycine-asparagine-lysine)
With B1, the “inhibitory effect on invertase (in words)” value with invertase is reported as “None of the other enzymes is significantly affected; also recorded: essentially no inhibitory effect”. In addition, the “inhibitory effect on alpha-amylase (in words)” value with alpha-amylase is listed as “None of the other enzymes is significantly affected; also recorded: essentially no inhibitory effect”. The “inhibitory effect on beta-amylase (in words)” value in the data set on beta-amylase is recorded as “None of the other enzymes is significantly affected; also recorded: essentially no inhibitory effect”. Moreover, in data set [1], the “stability to denaturing conditions (in words)” value is reported as “extreme stability to denaturing conditions”. Besides, in the data set with HIV-1 (setting [2]), the “concentration at which significant inhibition of p24 production first occurs” value came out at 2.5 µg/mL and the “concentrations showing marked inhibition of p24 production” value is on record as “above 1.25 ug/ml”. Moreover, the “effect on HIV p24 production (in words)” value with HIV-1 (up to 20 ug/ml) is on record as “profound reductions in signal markers of viral replication”. Further, the “inhibitory effect on glucoamylase (in words)” value in the data set with glucoamylase is recorded as “essentially no inhibitory effect”. In addition, the “inhibitory effect on debranching enzyme (in words)” value in the data set with debranching enzyme is recorded as “None of the other enzymes is significantly affected; also recorded: essentially no inhibitory effect”. The “amount of protein showing no toxic effect on the cell line” value in the data set on CEM×179 cells is “up to 50 ug/assay”. In the data set with yeast alpha-glucosidase, the “inhibitory effect on alpha-glucosidase activity (in words)” value is “inhibition of essentially all enzyme activity; also recorded: completely inhibited the enzyme; also recorded: nearly complete”, the “Specific Inhibitory Activity” value was “about 2810” and the “change of inhibitory activity after removal of acetylglucosamine (in words)” value is “marked reduction in inhibitory activity”. Also, the “inhibitory activity lost after deglycosylation” value with yeast alpha-glucosidase (CON-1 treated with PNGase versus native glycosylated CON-1 (FIG. 8)) is listed as “about 50%”. Also, the “Specific Inhibitory Activity” value with yeast alpha-glucosidase (listed as SDS Gel Electrophoresis Slice) is given as 2810.0.

B2: CON-2: small form analog of CON-1, salivary glycoprotein of 82 amino acids (protein)
chain: SPPGKPQGPPPQGGNQPQGPPPPPGKPQGPPPQGGNKPQGPPPPGKPQGPPPQGGNKSQGPPPPGKPQGPPPQGGSKSRSSR
B2: in the data set with invertase, the “inhibitory effect on invertase (in words)” value is “essentially no inhibitory effect”. In addition, the “inhibitory effect on alpha-amylase (in words)” value in the data set on alpha-amylase was “essentially no inhibitory effect”. Besides, the “inhibitory effect on beta-amylase (in words)” value in the data set on beta-amylase is “essentially no inhibitory effect”. The “stability to denaturing conditions (in words)” value in data set [1] is “extreme stability to denaturing conditions”. The “inhibitory effect on glucoamylase (in words)” value with glucoamylase is “essentially no inhibitory effect”. For the same molecule, the “inhibitory effect on debranching enzyme (in words)” value in the data set with debranching enzyme is listed as “essentially no inhibitory effect”. Also, in the data set with yeast alpha-glucosidase, the “inhibitory effect on alpha-glucosidase activity (in words)” value was “nearly complete” and the “change of inhibitory activity after removal of acetylglucosamine (in words)” value is recorded as “marked reduction in inhibitory activity”.

B3: alpha-amylase: salivary protein tested for effect on alpha-glucosidase (protein, UniProt P0DUB6 16-511, looked up)
Alpha-amylase 1A: QYSSNTQQGRTSIVHLFEWRWVDIALECERYLAPKGFGGVQVSPPNENVAIHNPFRPWWERYQPVSYKLCTRSGNEDEFRNMVTRCNNVGVRIYVDAVINHMCGNAVSAGTSSTCGSYFNPGSRDFPAVPYSGWDFNDGKCKTGSGDIENYNDATQVRDCRLSGLLDLALGKDYVRSKIAEYMNHLIDIGVAGFRIDASKHMWPGDIKAILDKLHNLNSNWFPEGSKPFIYQEVIDLGGEPIKSSDYFGNGRVTEFKYGAKLGTVIRKWNGEKMSYLKNWGEGWGFMPSDRALVFVDNHDNQRGHGAGGASILTFWDARLYKMAVGFMLAHPYGFTRVMSSYRWPRYFENGKDVNDWVGPPNDNGVTKEVTINPDTTCGNDWVCEHRWRQIRNMVNFRNVVDGQPFTNWYDNGSNQVAFGRGNRGFIVFNNDDWTFSLTLQTGLPAGTYCDVISGDKINGNCTGIKIYVSDDGKAHFSISNSAEDPFIAIHAESKL
As for B3, the “inhibitory effect on alpha-glucosidase activity (in words)” value in the data set with yeast alpha-glucosidase is listed as “significantly enhance enzyme activity”.
